# Assay results reported in the supplement of paper PMC5998384.
# Experiments:
# HeLa Kyoto [1] = assay: solubility in G1/S (NP-40 vs SDS abundance) (log2 ratio); higher = more soluble; conditions: cell cycle stage: G1/S
# HeLa Kyoto [2] = assay: solubility change mitosis vs G1/S (difference of NP-40 vs SDS log2 ratios) (log2 ratio difference); higher = more soluble in mitosis
# 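Throughout, for solubility change mitosis vs G1/S (difference of NP-40 vs SDS log2 ratios): synchronized HeLa Kyoto cells (double thymidine block for G1/S, nocodazole release for mitosis), protein amounts in NP-40 versus SDS lysates quantified by mass spectrometry, three biological replicates.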
# 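Throughout, for solubility in G1/S (NP-40 vs SDS abundance): HeLa Kyoto cells arrested at G1/S by double thymidine block, proteins quantified by TMT10plex mass spectrometry in mild NP-40 versus SDS extracts, three biological replicates.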
sequence,measurement,setting,value
MDPPAVVAESVSSLTIADAFIAAGESSAPTPPRPALPRRFICSFPDCSANYSKAWKLDAHLCKHTGERPFVCDYEGCGKAFIRDYHLSRHILTHTGEKPFVCAANGCDQKFNTKSNLKKHFERKHENQQKQYICSFEDCKKTFKKHQQLKIHQCQHTNEPLFKCTQEGCGKHFASPSKLKRHAKAHEGYVCQKGCSFVAKTWTELLKHVRETHKEEILCEVCRKTFKRKDYLKQHMKTHAPERDVCRCPREGCGRTYTTVFNLQSHILSFHEESRPFVCEHAGCGKTFAMKQSLTRHAVVHDPDKKKMKLKVKKSREKRSLASHLSGYIPPKRKQGQGLSLCQNGESPNCVEDKMLSTVAVLTLG [GTF3A],solubility in G1/S (log2),HeLa Kyoto [1],-0.869
same,solubility change mitosis (log2),HeLa Kyoto [2],0.0516
MDRFLVKGAQGGLLRKQEEQEPTGEEPAVLGGDKESTRKRPRREAPGNGGHSAGPSWRHIRAEGLDCSYTVLFGKAEADEIFQELEKEVEYFTGALARVQVFGKWHSVPRKQATYGDAGLTYTFSGLTLSPKPWIPVLERIRDHVSGVTGQTFNFVLINRYKDGCDHIGEHRDDERELAPGSPIASVSFGACRDFVFRHKDSRGKSPSRRVAVVRLPLAHGSLLMMNHPTNTHWYHSLPVRKKVLAPRVNLTFRKILLTKK [ALKBH2],solubility in G1/S (log2),HeLa Kyoto [1],0.0785
same,solubility change mitosis (log2),HeLa Kyoto [2],0.0123
MDSLDHMLTDPLELGPCGDGHGTRIMEDCLLGGTRVSLPEDLLEDPEIFFDVVSLSTWQEVLSDSQREHLQQFLPQFPEDSAEQQNELILALFSGENFRFGNPLHIAQKLFRDGHFNPEVVKYRQLCFKSQYKRYLNSQQQYFHRLLKQILASRSDLLEMARRSGPALPFRQKRPSPSRTPEEREWRTQQRYLKVLREVKEECGDTALSSDEEDLSSWLPSSPARSPSPAVPLRVVPTLSTTDMKTADKVELGDSDLKIMLKKHHEKRKHQPDHPDLLTGDLTLNDIMTRVNAGRKGSLAALYDLAVLKKKVKEKEEKKKKKIKTIKSEAEDLAEPLSSTEGVAPLSQAPSPLAIPAIKEEPLEDLKPCLGINEISSSFFSLLLEILLLESQASLPMLEERVLDWQSSPASSLNSWFSAAPNWAELVLPALQYLAGESRAVPSSFSPFVEFKEKTQQWKLLGQSQDNEKELAALFQLWLETKDQAFCKQENEDSSDATTPVPRVRTDYVVRPSTGEEKRVFQEQERYRYSQPHKAFTFRMHGFESVVGPVKGVFDKETSLNKAREHSLLRSDRPAYVTILSLVRDAAARLPNGEGTRAEICELLKDSQFLAPDVTSTQVNTVVSGALDRLHYEKDPCVKYDIGRKLWIYLHRDRSEEEFERIHQAQAAAAKARKALQQKPKPPSKVKSSSKESSIKVLSSGPSEQSQMSLSDSSMPPTPVTPVTPTTPALPAIPISPPPVSAVNKSGPSTVSEPAKSSSGVLLVSSPTMPHLGTMLSPASSQTAPSSQAAARVVSHSGSAGLSQVRVVAQPSLPAVPQQSGGPAQTLPQMPAGPQIRVPATATQTKVVPQTVMATVPVKAQTTAATVQRPGPGQTGLTVTSLPATASPVSKPATSSPGTSAPSASTAAVIQNVTGQNIIKQVAITGQLGVKPQTGNSIPLTATNFRIQGKDVLRLPPSSITTDAKGQTVLRITPDMMATLAKSQVTTVKLTQDLFGTGGNTTGKGISATLHVTSNPVHAADSPAKASSASAPSSTPTGTTVVKVTPDLKPTEASSSAFRLMPALGVSVADQKGKSTVASSEAKPAATIRIVQGLGVMPPKAGQTITVATHAKQGASVASGSGTVHTSAVSLPSMNAAVSKTVAVASGAASTPISISTGAPTVRQVPVSTTVVSTSQAGKLPTRITVPLSVISQPMKGKSVVTAPIIKGNLGANLSGLGRNIILTTMPAGTKLIAGNKPVSFLTAQQLQQLQQQGQATQVRIQTVPASHLQQGTASGSSKAVSTVVVTTAPSPKQAPEQQ [NFRKB],solubility in G1/S (log2),HeLa Kyoto [1],-0.0172
same,solubility change mitosis (log2),HeLa Kyoto [2],0.184
MDSTKEKCDSYKDDLLLRMGLNDNKAGMEGLDKEKINKIIMEATKGSRFYGNELKKEKQVNQRIENMMQQKAQITSQQLRKAQLQVDRFAMELEQSRNLSNTIVHIDMDAFYAAVEMRDNPELKDKPIAVGSMSMLSTSNYHARRFGVRAAMPGFIAKRLCPQLIIVPPNFDKYRAVSKEVKEILADYDPNFMAMSLDEAYLNITKHLEERQNWPEDKRRYFIKMGSSVENDNPGKEVNKLSEHERSISPLLFEESPSDVQPPGDPFQVNFEEQNNPQILQNSVVFGTSAQEVVKEIRFRIEQKTTLTASAGIAPNTMLAKVCSDKNKPNGQYQILPNRQAVMDFIKDLPIRKVSGIGKVTEKMLKALGIITCTELYQQRALLSLLFSETSWHYFLHISLGLGSTHLTRDGERKSMSVERTFSEINKAEEQYSLCQELCSELAQDLQKERLKGRTVTIKLKNVNFEVKTRASTVSSVVSTAEEIFAIAKELLKTEIDADFPHPLRLRLMGVRISSFPNEEDRKHQQRSIIGFLQAGNQALSATECTLEKTDKDKFVKPLEMSHKKSFFDKKRSERKWSHQDTFKCEAVNKQSFQTSQPFQVLKKKMNENLEISENSDDCQILTCPVCFRAQGCISLEALNKHVDECLDGPSISENFKMFSCSHVSATKVNKKENVPASSLCEKQDYEAHPKIKEISSVDCIALVDTIDNSSKAESIDALSNKHSKEECSSLPSKSFNIEHCHQNSSSTVSLENEDVGSFRQEYRQPYLCEVKTGQALVCPVCNVEQKTSDLTLFNVHVDVCLNKSFIQELRKDKFNPVNQPKESSRSTGSSSGVQKAVTRTKRPGLMTKYSTSKKIKPNNPKHTLDIFFK [POLK],solubility in G1/S (log2),HeLa Kyoto [1],-0.534
same,solubility change mitosis (log2),HeLa Kyoto [2],0.335
MDTAEEDICRVCRSEGTPEKPLYHPCVCTGSIKFIHQECLVQWLKHSRKEYCELCKHRFAFTPIYSPDMPSRLPIQDIFAGLVTSIGTAIRYWFHYTLVAFAWLGVVPLTACRIYKCLFTGSVSSLLTLPLDMLSTENLLADCLQGCFVVTCTLCAFISLVWLREQIVHGGAPIWLEHAAPPFNAAGHHQNEAPAGGNGAENVAADQPANPPAENAVVGENPDAQDDQAEEEEEDNEEEDDAGVEDAADANNGAQDDMNWNALEWDRAAEELTWERMLGLDGSLVFLEHVFWVVSLNTLFILVFAFCPYHIGHFSLVGLGFEEHVQASHFEGLITTIVGYILLAITLIICHGLATLVKFHRSRRLLGVCYIVVKVSLLVVVEIGVFPLICGWWLDICSLEMFDATLKDRELSFQSAPGTTMFLHWLVGMVYVFYFASFILLLREVLRPGVLWFLRNLNDPDFNPVQEMIHLPIYRHLRRFILSVIVFGSIVLLMLWLPIRIIKSVLPNFLPYNVMLYSDAPVSELSLELLLLQVVLPALLEQGHTRQWLKGLVRAWTVTAGYLLDLHSYLLGDQEENENSANQQVNNNQHARNNNAIPVVGEGLHAAHQAILQQGGPVGFQPYRRPLNFPLRIFLLIVFMCITLLIASLICLTLPVFAGRWLMSFWTGTAKIHELYTAACGLYVCWLTIRAVTVMVAWMPQGRRVIFQKVKEWSLMIMKTLIVAVLLAGVVPLLLGLLFELVIVAPLRVPLDQTPLFYPWQDWALGVLHAKIIAAITLMGPQWWLKTVIEQVYANGIRNIDLHYIVRKLAAPVISVLLLSLCVPYVIASGVVPLLGVTAEMQNLVHRRIYPFLLMVVVLMAILSFQVRQFKRLYEHIKNDKYLVGQRLVNYERKSGKQGSSPPPPQSSQE [MARCH6],solubility in G1/S (log2),HeLa Kyoto [1],-0.397
same,solubility change mitosis (log2),HeLa Kyoto [2],0.155
MDWKEVLRRRLATPNTCPNKKKSEQELKDEEMDLFTKYYSEWKGGRKNTNEFYKTIPRFYYRLPAEDEVLLQKLREESRAVFLQRKSRELLDNEELQNLWFLLDKHQTPPMIGEEAMINYENFLKVGEKAGAKCKQFFTAKVFAKLLHTDSYGRISIMQFFNYVMRKVWLHQTRIGLSLYDVAGQGYLRESDLENYILELIPTLPQLDGLEKSFYSFYVCTAVRKFFFFLDPLRTGKIKIQDILACSFLDDLLELRDEELSKESQETNWFSAPSALRVYGQYLNLDKDHNGMLSKEELSRYGTATMTNVFLDRVFQECLTYDGEMDYKTYLDFVLALENRKEPAALQYIFKLLDIENKGYLNVFSLNYFFRAIQELMKIHGQDPVSFQDVKDEIFDMVKPKDPLKISLQDLINSNQGDTVTTILIDLNGFWTYENREALVANDSENSADLDDT [C14ORF10],solubility in G1/S (log2),HeLa Kyoto [1],-0.0201
same,solubility change mitosis (log2),HeLa Kyoto [2],-0.0757
MEAPPVTMMPVTGGTINMMEYLLQGSVLDHSLESLIHRLRGLCDNMEPETFLDHEMVFLLKGQQASPFVLRARRSMDRAGAPWHLRYLGQPEMGDKNRHALVRNCVDIATSENLTDFLMEMGFRMDHEFVAKGHLFRKGIMKIMVYKIFRILVPGNTDSTEALSLSYLVELSVVAPAGQDMVSDDMKNFAEQLKPLVHLEKIDPKRLM [MED18],solubility in G1/S (log2),HeLa Kyoto [1],0.212
same,solubility change mitosis (log2),HeLa Kyoto [2],-0.161
MEDGVLKEGFLVKRGHIVHNWKARWFILRQNTLVYYKLEGGRRVTPPKGRILLDGCTITCPCLEYENRPLLIKLKTQTSTEYFLEACSREERDAWAFEITGAIHAGQPGKVQQLHSLRNSFKLPPHISLHRIVDKMHDSNTGIRSSPNMEQGSTYKKTFLGSSLVDWLISNSFTASRLEAVTLASMLMEENFLRPVGVRSMGAIRSGDLAEQFLDDSTALYTFAESYKKKISPKEEISLSTVELSGTVVKQGYLAKQGHKRKNWKVRRFVLRKDPAFLHYYDPSKEENRPVGGFSLRGSLVSALEDNGVPTGVKGNVQGNLFKVITKDDTHYYIQASSKAERAEWIEAIKKLT [PLEK2],solubility in G1/S (log2),HeLa Kyoto [1],-0.00783
same,solubility change mitosis (log2),HeLa Kyoto [2],-0.0462
MEDLEEDVRFIVDETLDFGGLSPSDSREEEDITVLVTPEKPLRRGLSHRSDPNAVAPAPQGVRLSLGPLSPEKLEEILDEANRLAAQLEQCALQDRESAGEGLGPRRVKPSPRRETFVLKDSPVRDLLPTVNSLTRSTPSPSSLTPRLRSNDRKGSVRALRATSGKRPSNMKRESPTCNLFPASKSPASSPLTRSTPPVRGRAGPSGRAAASEETRAAKLRVSGSGEFVGLTLKFLHPSPPGPPTPIRSVLAPQPSTSNSQRLPRPQGAAAKSSSQLPIPSAIPRPASRMPLTSRSVPPGRGALPPDSLSTRKGLPRPSTAGHRVRESGHKVPVSQRLNLPVMGATRSNLQPPRKVAVPGPTR [PSRC1],solubility in G1/S (log2),HeLa Kyoto [1],-0.152
same,solubility change mitosis (log2),HeLa Kyoto [2],0.803
MEEEQDLPEQPVKKAKMQESGEQTISQVSNPDVSDQKPETSSLASNLPMSEEIMTCTDYIPRSSNDYTSQMYSAKPYAHILSVPVSETAYPGQTQYQTLQQTQPYAVYPQATQTYGLPPFGALWPGMKPESGLIQTPSPSQHSVLTCTTGLTTSQPSPAHYSYPIQASSTNASLISTSSTIANIPAAAVASISNQDYPTYTILGQNQYQACYPSSSFGVTGQTNSDAESTTLAATTYQSEKPSVMAPAPAAQRLSSGDPSTSPSLSQTTPSKDTDDQSRKNMTSKNRGKRKADATSSQDSELERVFLWDLDETIIIFHSLLTGSYAQKYGKDPTVVIGSGLTMEEMIFEVADTHLFFNDLEECDQVHVEDVASDDNGQDLSNYSFSTDGFSGSGGSGSHGSSVGVQGGVDWMRKLAFRYRKVREIYDKHKSNVGGLLSPQRKEALQRLRAEIEVLTDSWLGTALKSLLLIQSRKNCVNVLITTTQLVPALAKVLLYGLGEIFPIENIYSATKIGKESCFERIVSRFGKKVTYVVIGDGRDEEIAAKQHNMPFWRITNHGDLVSLHQALELDFL [EYA3],solubility in G1/S (log2),HeLa Kyoto [1],-0.0392
same,solubility change mitosis (log2),HeLa Kyoto [2],-0.0147
